Common to all, as to assay type: binding
Test [1] can be described thus: Probe fluorescence ratio response to arachidonic acid relative to ADIFAB2. Particulars: arachidonic acid; response relative to ADIFAB2. The method in brief: (§1)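 Fluorescently labeled rat intestinal FABP variants were read at two emission wavelengths, near the unbound maximum (about 420 to 480 nm) and the FFA-bound maximum (about 495 to 580 nm). R = Fλ1/Fλ2 after subtracting probe-free intensity; ΔR = R+agent − R0, normalized to ADIFAB2 (rI-FABP-L72A).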

The nature of test [2]: Probe fluorescence ratio response to linolenic acid relative to ADIFAB2. Particulars: response relative to ADIFAB2. The method in brief:
as §1

Test [3] is described as follows: Probe fluorescence ratio response to linoleic acid relative to ADIFAB2. Particulars: response relative to ADIFAB2. The procedure, abridged: as §1
A short description of test [4]: Probe fluorescence ratio response to oleic acid relative to ADIFAB2. Particulars: response relative to ADIFAB2. The procedure, abridged: as §1
Test [5] in a line: Probe fluorescence ratio response to palmitic acid relative to ADIFAB2. Particulars: response relative to ADIFAB2. The method in brief: as §1
The nature of test [6]: Probe fluorescence ratio response to palmitoleic acid relative to ADIFAB2. To be noted: response relative to ADIFAB2. The method in brief:
as §1

Test [7] can be described thus: Probe fluorescence ratio response to stearic acid relative to ADIFAB2. To be noted: response relative to ADIFAB2. The procedure, abridged:
as §1

“And” between values parts separate entries of the source, which are not always exact repeats. Identical values can stand only once.

13 molecules from US20060257938A1, “Method of screening for drugs that block ligand binding to a lipid binding protein” (priority 2005, published 2006) can be followed below.

B1: 18I 31I 55M 73V 72A (protein, listed as Rattus norvegicus)
chain: AFDGTWKVDRNENYEKFIEKMGINVVKRKLIAHDNLKLTITQEGNKFTVKESSNMRNIDVVFELGVDFAYSAVDGTELTGTWTMEGNKLVGKFKRVDNGKELIAVREISGNELIQTYTYEGVEAKRIFKKE
modifications: PEPTIDE (1)...(131) wild-type rat intestinal fatty acid binding protein
With B1, in test [1], the “DR/DR AA” value was 1.710. Moreover, the “DR/DR LNA” value in test [2] came out at 2.408. The “DR/DR LA” value in test [3] was found to be 1.981. In test [4], the “DR/DR OA” value amounted to 1.188. The “DR/DR PA” value in test [5] turned out to be 1.883. Besides, the “DR/DR POA” value in test [6] came to 2.478. The “DR/DR SA” value in test [7] came out at 0.502.

B2: 18I 31Y 73V 72A (protein, listed as Rattus norvegicus)
chain: AFDGTWKVDRNENYEKFIEKMGINVVKRKLYAHDNLKLTITQEGNKFTVKESSNFRNIDVVFELGVDFAYSAVDGTELTGTWTMEGNKLVGKFKRVDNGKELIAVREISGNELIQTYTYEGVEAKRIFKKE
modifications: PEPTIDE (1)...(131) wild-type rat intestinal fatty acid binding protein
Consider B2, for which the “DR/DR AA” value in test [1] was found to be 1.801. Further, the “DR/DR LNA” value in test [2] was found to be 2.176. The “DR/DR LA” value in test [3] was found to be 2.242. Moreover, the “DR/DR OA” value in test [4] came to 1.818. Moreover, the “DR/DR PA” value in test [5] is given as 1.615. In addition, the “DR/DR POA” value in test [6] stood at 2.088. The “DR/DR SA” value in test [7] is recorded as 1.047.

B3: 72V 73W 74S (protein, listed as Rattus norvegicus)
chain: AFDGTWKVDRNENYEKFMEKMGINVVKRKLGAHDNLKLTITQEGNKFTVKESSNFRNIDVVFELGVDFAYSVWSGTELTGTWTMEGNKLVGKFKRVDNGKELIAVREISGNELIQTYTYEGVEAKRIFKKE
modifications: PEPTIDE (1)...(131) wild-type rat intestinal fatty acid binding protein
As to B3, the “DR/DR AA” value in test [1] turned out to be 1.424. Also, the “DR/DR LNA” value in test [2] is recorded as 2.044. For the same molecule, in test [3], the “DR/DR LA” value is listed as 1.819. In test [4], the “DR/DR OA” value is recorded as 1.477. In test [5], the “DR/DR PA” value amounted to 1.789. Also, the “DR/DR POA” value in test [6] was 2.662. Moreover, in test [7], the “DR/DR SA” value was found to be 0.574.

B4: 18V 31A 55W 73W 72A (protein, listed as Rattus norvegicus)
chain: AFDGTWKVDRNENYEKFVEKMGINVVKRKLAAHDNLKLTITQEGNKFTVKESSNWRNIDVVFELGVDFAYSAWDGTELTGTWTMEGNKLVGKFKRVDNGKELIAVREISGNELIQTYTYEGVEAKRIFKKE
modifications: PEPTIDE (1)...(131) wild-type rat intestinal fatty acid binding protein
Take B4: in test [1], the “DR/DR AA” value is 1.130. Besides, the “DR/DR LNA” value in test [2] is given as 1.887. In test [3], the “DR/DR LA” value came to 1.555. The “DR/DR OA” value in test [4] turned out to be 0.913. Further, the “DR/DR PA” value in test [5] is recorded as 1.505. For the same molecule, the “DR/DR POA” value in test [6] was found to be 2.042. Also, the “DR/DR SA” value in test [7] was found to be 0.392.

B5: 72I 73W 74N (protein, listed as Rattus norvegicus)
chain: AFDGTWKVDRNENYEKFMEKMGINVVKRKLGAHDNLKLTITQEGNKFTVKESSNFRNIDVVFELGVDFAYSIWNGTELTGTWTMEGNKLVGKFKRVDNGKELIAVREISGNELIQTYTYEGVEAKRIFKKE
modifications: PEPTIDE (1)...(131) wild-type rat intestinal fatty acid binding protein
Regarding B5, the “DR/DR AA” value in test [1] is reported as 0.791. In addition, the “DR/DR LNA” value in test [2] amounted to 1.794. Also, the “DR/DR LA” value in test [3] was found to be 1.194. The “DR/DR OA” value in test [4] is on record as 0.779. Moreover, the “DR/DR PA” value in test [5] is listed as 2.091. Further, the “DR/DR POA” value in test [6] was 3.236. In addition, the “DR/DR SA” value in test [7] is 0.329.

B6: 72V 73W 74N (protein, listed as Rattus norvegicus)
chain: AFDGTWKVDRNENYEKFMEKMGINVVKRKLGAHDNLKLTITQEGNKFTVKESSNFRNIDVVFELGVDFAYSVWNGTELTGTWTMEGNKLVGKFKRVDNGKELIAVREISGNELIQTYTYEGVEAKRIFKKE
modifications: PEPTIDE (1)...(131) wild-type rat intestinal fatty acid binding protein
With B6, the “DR/DR AA” value in test [1] stood at 1.191. Moreover, the “DR/DR LNA” value in test [2] came out at 2.384. The “DR/DR LA” value in test [3] stood at 1.726. The “DR/DR OA” value in test [4] was found to be 1.146. Further, the “DR/DR PA” value in test [5] is listed as 2.229. Also, the “DR/DR POA” value in test [6] is listed as 3.507. The “DR/DR SA” value in test [7] was 0.468.

B7: 18V 31A 73F 72A (protein, listed as Rattus norvegicus)
chain: AFDGTWKVDRNENYEKFVEKMGINVVKRKLAAHDNLKLTITQEGNKFTVKESSNFRNIDVVFELGVDFAYSAFDGTELTGTWTMEGNKLVGKFKRVDNGKELIAVREISGNELIQTYTYEGVEAKRIFKKE
modifications: PEPTIDE (1)...(131) wild-type rat intestinal fatty acid binding protein
With B7, the “DR/DR AA” value in test [1] is 1.142. For the same molecule, the “DR/DR LNA” value in test [2] is on record as 2.036. For the same molecule, in test [3], the “DR/DR LA” value was 1.527. For the same molecule, the “DR/DR OA” value in test [4] is given as 0.828. Further, in test [5], the “DR/DR PA” value was determined as 1.510. Further, the “DR/DR POA” value in test [6] came to 2.677. Besides, the “DR/DR SA” value in test [7] is 0.375.

B8: 18I 31A 73F 72A (protein, listed as Rattus norvegicus)
chain: AFDGTWKVDRNENYEKFIEKMGINVVKRKLAAHDNLKLTITQEGNKFTVKESSNFRNIDVVFELGVDFAYSAFDGTELTGTWTMEGNKLVGKFKRVDNGKELIAVREISGNELIQTYTYEGVEAKRIFKKE
modifications: PEPTIDE (1)...(131) wild-type rat intestinal fatty acid binding protein
On to B8, for which, in test [1], the “DR/DR AA” value was 1.314 and 1.296. Further, the “DR/DR LNA” value in test [2] is 2.318 and 2.203. Moreover, in test [3], the “DR/DR LA” value is 1.732 and 1.652. The “DR/DR OA” value in test [4] was 0.950 and 0.995. The “DR/DR PA” value in test [5] is 1.515 and 1.372. The “DR/DR POA” value in test [6] is 2.730 and 2.522. Further, in test [7], the “DR/DR SA” value was 0.404 and 0.406.

B9: 73F 72A (protein, listed as Rattus norvegicus)
chain: AFDGTWKVDRNENYEKFMEKMGINVVKRKLGAHDNLKLTITQEGNKFTVKESSNFRNIDVVFELGVDFAYSAFDGTELTGTWTMEGNKLVGKFKRVDNGKELIAVREISGNELIQTYTYEGVEAKRIFKKE
modifications: PEPTIDE (1)...(131) wild-type rat intestinal fatty acid binding protein
For the molecule B9, in test [1], the “DR/DR AA” value is 1.051. In test [2], the “DR/DR LNA” value worked out at 1.775. For the same molecule, the “DR/DR LA” value in test [3] was determined as 1.171. The “DR/DR OA” value in test [4] was found to be 0.630. In test [5], the “DR/DR PA” value stood at 1.118. In addition, the “DR/DR POA” value in test [6] worked out at 2.381. Also, the “DR/DR SA” value in test [7] turned out to be 0.399.

B10: 72A 73W 74A (protein, listed as Rattus norvegicus)
chain: AFDGTWKVDRNENYEKFMEKMGINVVKRKLGAHDNLKLTITQEGNKFTVKESSNFRNIDVVFELGVDFAYSAWAGTELTGTWTMEGNKLVGKFKRVDNGKELIAVREISGNELIQTYTYEGVEAKRIFKKE
modifications: PEPTIDE (1)...(131) wild-type rat intestinal fatty acid binding protein
For B10, the “DR/DR AA” value in test [1] came to 0.892. In addition, the “DR/DR LNA” value in test [2] turned out to be 2.093. In addition, the “DR/DR LA” value in test [3] is given as 1.466. In addition, the “DR/DR OA” value in test [4] is on record as 0.933. Moreover, the “DR/DR PA” value in test [5] came to 1.942. The “DR/DR POA” value in test [6] came to 3.016. Moreover, in test [7], the “DR/DR SA” value stood at 0.330.

B11: 18I 31I 55M 73I 72A (protein, listed as Rattus norvegicus)
chain: AFDGTWKVDRNENYEKFIEKMGINVVKRKLIAHDNLKLTITQEGNKFTVKESSNMRNIDVVFELGVDFAYSAIDGTELTGTWTMEGNKLVGKFKRVDNGKELIAVREISGNELIQTYTYEGVEAKRIFKKE
modifications: PEPTIDE (1)...(131) wild-type rat intestinal fatty acid binding protein
Take B11: the “DR/DR AA” value in test [1] was 1.354. Besides, in test [2], the “DR/DR LNA” value was determined as 1.803. In addition, the “DR/DR LA” value in test [3] is on record as 1.516. Further, the “DR/DR OA” value in test [4] stood at 0.822. In test [5], the “DR/DR PA” value is recorded as 1.546. Further, the “DR/DR POA” value in test [6] is given as 1.903. In addition, the “DR/DR SA” value in test [7] amounted to 0.382.

B12: 18I 31V 73G 72A (protein, listed as Rattus norvegicus)
chain: AFDGTWKVDRNENYEKFIEKMGINVVKRKLVAHDNLKLTITQEGNKFTVKESSNFRNIDVVFELGVDFAYSAGDGTELTGTWTMEGNKLVGKFKRVDNGKELIAVREISGNELIQTYTYEGVEAKRIFKKE
modifications: PEPTIDE (1)...(131) wild-type rat intestinal fatty acid binding protein
Consider B12, for which the “DR/DR AA” value in test [1] was 1.348. In test [2], the “DR/DR LNA” value was 1.946. For the same molecule, the “DR/DR LA” value in test [3] came to 1.715. Besides, the “DR/DR OA” value in test [4] was 0.968. Further, in test [5], the “DR/DR PA” value amounted to 1.630. The “DR/DR POA” value in test [6] is 2.122. The “DR/DR SA” value in test [7] is given as 0.543.

B13: 14Q 18L 31A 73W 117V 72A (protein, listed as Rattus norvegicus)
chain: AFDGTWKVDRNENQEKFLEKMGINVVKRKLAAHDNLKLTITQEGNKFTVKESSNFRNIDVVFELGVDFAYSAWDGTELTGTWTMEGNKLVGKFKRVDNGKELIAVREISGNELIQTVTYEGVEAKRIFKKE
modifications: PEPTIDE (1)...(131) wild-type rat intestinal fatty acid binding protein
As to B13, in test [1], the “DR/DR AA” value was 1.558. In addition, the “DR/DR LNA” value in test [2] worked out at 1.958. Further, the “DR/DR LA” value in test [3] stood at 1.942. In test [4], the “DR/DR OA” value is 1.478. Besides, the “DR/DR PA” value in test [5] came out at 1.084. The “DR/DR POA” value in test [6] is 2.008. The “DR/DR SA” value in test [7] is on record as 0.384.
